Biological target: Lumi4-Tb-SNAP-FLT3 on HEK293 cells (UniProt P36888 27-993, Lumi4-Tb on the SNAP tag)
Experiment: FRET

Lumi4-Tb-SNAP-FLT3 on HEK293 cells, sequence (P36888 27-993): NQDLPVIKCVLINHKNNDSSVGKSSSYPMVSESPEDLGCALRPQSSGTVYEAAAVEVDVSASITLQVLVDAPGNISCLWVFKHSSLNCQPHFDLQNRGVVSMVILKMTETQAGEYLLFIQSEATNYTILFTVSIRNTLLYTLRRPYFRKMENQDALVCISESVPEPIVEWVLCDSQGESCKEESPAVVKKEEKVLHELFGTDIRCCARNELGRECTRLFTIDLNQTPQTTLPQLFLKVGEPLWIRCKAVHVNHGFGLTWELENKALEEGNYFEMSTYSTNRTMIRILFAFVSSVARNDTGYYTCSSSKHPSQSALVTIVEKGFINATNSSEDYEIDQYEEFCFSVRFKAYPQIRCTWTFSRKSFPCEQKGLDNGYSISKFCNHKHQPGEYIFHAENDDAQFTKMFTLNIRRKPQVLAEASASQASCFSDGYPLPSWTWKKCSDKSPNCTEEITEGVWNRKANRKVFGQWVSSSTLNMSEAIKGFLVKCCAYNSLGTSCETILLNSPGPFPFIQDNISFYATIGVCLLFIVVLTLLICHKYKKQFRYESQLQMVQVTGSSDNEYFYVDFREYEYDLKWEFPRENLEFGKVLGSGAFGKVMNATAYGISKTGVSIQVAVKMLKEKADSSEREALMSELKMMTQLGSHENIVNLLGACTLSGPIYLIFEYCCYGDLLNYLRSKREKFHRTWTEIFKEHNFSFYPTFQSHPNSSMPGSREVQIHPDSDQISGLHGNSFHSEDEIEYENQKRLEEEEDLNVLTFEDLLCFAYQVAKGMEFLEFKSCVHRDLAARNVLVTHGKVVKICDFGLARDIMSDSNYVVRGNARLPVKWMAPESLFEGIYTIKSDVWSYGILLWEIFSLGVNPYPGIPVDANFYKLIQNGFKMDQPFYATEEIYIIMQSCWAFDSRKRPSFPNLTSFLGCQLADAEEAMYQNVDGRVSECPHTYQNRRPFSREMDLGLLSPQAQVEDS

B1: human recombinant FL (rh-FLT3-L), labelled as Red-FL (ligand)
chain: TQDCSFQHSPISSDFAVKIRELSDYLLQDYPVTVASNLQDEELCGGLWRLVLAQRWMERLKTVAGSKMQGLLERVNTEIHFVTKCAFQPPPSCLRFVQTNISRLLQETSEQLVALKPWITRQNFSRCLELQCQPDSSTLPPPWSPRPLEATAPTAPQPPLLLLLLLPVGLLLLAAAWCLHWQRTRRRTPRPGEQVPPVPSPQDLLLVEH
modifications: red fluorophore (Red-FL), position not stated
  IC50: 570 pM

— article PMC5847526 (2018)
